Data: paper PMC5416842, “The ribosome biogenesis factor yUtp23/hUTP23 coordinates key interactions in the yeast and human pre-40S particle and hUTP23 contains an essential PIN domain” (Nucleic Acids Research, 2017)
Blank lines part the entries; values can stand above or below the molecule they belong to.

B1: protein-A-His-tagged yUtp23 (natural protein, S. cerevisiae, UniProt Q12339 1-254, looked up)
chain: MRQKRAKSYRKQLLVYSHTFKFREPYQVLVDNQLVLECNNSNFNLPSGLKRTLQADVKVMITQCCIQALYETRNDGAINLAKQFERRRCNHSFKDPKSPAECIESVVNISGANKHRYVVASQDIDLRRKLRTVPGVPLIHLTRSVMVMEPLSTASAKASKITEEQKLYKGLNDPNIEKLQESGDGSGKESITKKRKLGPKAPNPLSVKKKKKVNSPSDEVKDKEDTSKEKKKRRRRKHKSNTNVPVSNGTTAAQ
notes: yUtp23, S. cerevisiae; open reading frame amplified from yeast genomic DNA
B4: GST-tagged human hUTP23 (natural protein, UniProt Q9BRU9 1-249, looked up)
chain: MKITRQKHAKKHLGFFRNNFGVREPYQILLDGTFCQAALRGRIQLREQLPRYLMGETQLCTTRCVLKELETLGKDLYGAKLIAQKCQVRNCPHFKNAVSGSECLLSMVEEGNPHHYFVATQDQNLSVKVKKKPGVPLMFIIQNTMVLDKPSPKTIAFVKAVESGQLVSVHEKESIKHLKEEQGLVKNTEQSRRKKRKKISGPNPLSCLKKKKKAPDTQSSASEKKRKRKRIRNRSNPKVLSEKQNAEGE
notes: hUTP23, human; open reading frame amplified from human cDNA; also called GST-hUTP23

Experiments:
[1] = target: T1, GST-yUtp23 WT (Saccharomyces cerevisiae) (UniProt Q12339); experiment: EMSA; conditions: EMSA: 10 mM Tris/HCl pH 7.6, 75 mM NaCl, 2 mM DTT, 100 ng/ul BSA, 0.8 U/ul RNasin, 4.5% glycerol, 0.05% Tween20, 500 ng/ul E. coli tRNA; 10 min 30 C then 10 min
T1 sequence: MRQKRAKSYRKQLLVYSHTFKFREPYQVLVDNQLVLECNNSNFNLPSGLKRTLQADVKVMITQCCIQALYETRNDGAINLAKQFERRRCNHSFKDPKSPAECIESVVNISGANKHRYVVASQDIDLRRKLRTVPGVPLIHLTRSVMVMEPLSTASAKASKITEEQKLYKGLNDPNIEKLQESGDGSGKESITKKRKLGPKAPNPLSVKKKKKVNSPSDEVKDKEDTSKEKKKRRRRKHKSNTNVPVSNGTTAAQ

[2] = test system: GST-yUtp23 WT (Saccharomyces cerevisiae); experiment: EMSA; conditions: 100-1000 nM protein; EMSA: 10 mM Tris/HCl pH 7.6, 75 mM NaCl, 2 mM DTT, 100 ng/ul BSA, 0.8 U/ul RNasin, 4.5% glycerol, 0.05% Tween20, 500 ng/ul E. coli tRNA; 10 min 30 C then 10 min
[3] = target: T1, GST-yUtp23 WT (Saccharomyces cerevisiae); experiment: competition; conditions: EMSA: 10 mM Tris/HCl pH 7.6, 75 mM NaCl, 2 mM DTT, 100 ng/ul BSA, 0.8 U/ul RNasin, 4.5% glycerol, 0.05% Tween20, 500 ng/ul E. coli tRNA; 10 min 30 C then 10 min
GST-tagged yeast yUtp23 = target: T2, GST-tagged yeast yUtp23 (S. cerevisiae, UniProt Q12339 1-254); experiment: pull-down; GST-tagged yeast bait proteins immobilised on glutathione sepharose (pre-blocked with BSA), incubated with recombinant protein-A-His-tagged yUtp23 for 1 h at 4°C in Buffer NB (20 mM Tris/HCl pH 7.6, 150 mM NaCl, 8.7% glycerol, 0.1% Tween20); five washes; SDS-PAGE, Coomassie staining; conditions: both partners purified
T2 construct: yUtp23, S. cerevisiae; open reading frame amplified from yeast genomic DNA; also called GST-yUtp23
T2 sequence (looked up): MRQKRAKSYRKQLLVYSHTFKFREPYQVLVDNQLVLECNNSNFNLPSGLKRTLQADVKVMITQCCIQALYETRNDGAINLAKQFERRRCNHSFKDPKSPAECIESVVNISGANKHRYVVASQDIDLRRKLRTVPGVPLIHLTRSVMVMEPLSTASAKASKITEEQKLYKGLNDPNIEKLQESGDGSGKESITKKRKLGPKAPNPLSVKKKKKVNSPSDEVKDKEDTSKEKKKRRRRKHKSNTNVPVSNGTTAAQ

GST-tagged yeast yRrp7 = target: T3, GST-tagged yeast yRrp7 (S. cerevisiae, UniProt P25368 1-297); experiment: as above; conditions: both partners purified
T3 construct: yRrp7, S. cerevisiae; open reading frame amplified from yeast genomic DNA; also called GST-yRrp7
T3 sequence (looked up): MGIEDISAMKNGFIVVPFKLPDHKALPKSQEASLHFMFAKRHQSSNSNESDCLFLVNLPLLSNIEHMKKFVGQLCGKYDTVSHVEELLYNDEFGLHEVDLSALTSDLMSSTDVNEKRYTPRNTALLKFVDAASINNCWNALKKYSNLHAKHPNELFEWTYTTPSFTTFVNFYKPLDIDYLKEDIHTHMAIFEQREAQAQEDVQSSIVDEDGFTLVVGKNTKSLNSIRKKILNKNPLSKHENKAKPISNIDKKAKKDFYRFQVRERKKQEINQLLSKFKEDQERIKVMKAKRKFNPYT

GST-tagged human hUTP23 = target: B4; experiment: pull-down; GST-tagged hUTP23 immobilised on glutathione sepharose (pre-blocked with BSA), incubated with N-terminally His-tagged recombinant human proteins for 1 h at 4°C in Buffer NB (20 mM Tris/HCl pH 7.6, 150 mM NaCl, 8.7% glycerol, 0.1% Tween20); five washes; SDS-PAGE, immunoblotting with anti-His and anti-GST antibodies; conditions: both partners purified
[4] = target: B1; experiment: pull-down; GST-tagged yeast bait proteins immobilised on glutathione sepharose (pre-blocked with BSA), incubated with recombinant protein-A-His-tagged yUtp23 for 1 h at 4°C in Buffer NB (20 mM Tris/HCl pH 7.6, 150 mM NaCl, 8.7% glycerol, 0.1% Tween20); five washes; SDS-PAGE, Coomassie staining; conditions: both partners purified
[5] = target: T4, N-terminally His-tagged hRRP7 (human, UniProt Q9Y3A4 1-280); experiment: pull-down; GST-tagged hUTP23 immobilised on glutathione sepharose (pre-blocked with BSA), incubated with N-terminally His-tagged recombinant human proteins for 1 h at 4°C in Buffer NB (20 mM Tris/HCl pH 7.6, 150 mM NaCl, 8.7% glycerol, 0.1% Tween20); five washes; SDS-PAGE, immunoblotting with anti-His and anti-GST antibodies; conditions: both partners purified
T4 construct: hRRP7, human; open reading frame amplified from human cDNA; The legend says that C-terminally truncated forms of the His-tagged hRRP7 protein were also present in the preparation; not shown: His tag, N-terminal, kept
T4 sequence (looked up): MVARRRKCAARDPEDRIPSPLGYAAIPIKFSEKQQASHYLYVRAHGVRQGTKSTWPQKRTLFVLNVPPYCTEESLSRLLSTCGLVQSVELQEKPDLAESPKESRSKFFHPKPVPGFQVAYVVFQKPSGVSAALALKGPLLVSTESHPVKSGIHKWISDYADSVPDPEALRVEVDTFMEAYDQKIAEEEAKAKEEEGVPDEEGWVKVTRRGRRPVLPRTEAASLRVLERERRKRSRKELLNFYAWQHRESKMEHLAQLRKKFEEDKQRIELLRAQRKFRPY

Molecule: GGGUAGGACGCAUGAUCUUGAGCUCUUUUCCUAUACUUUGUCCUAUGGCCAGCUUUCUCCUUAUUACGAAGAGAUUGCGGGAUGUGGGUGCAGAGUGGGAAAAUCUGAGUUCGGUCAUCUUUGUUGUUCGUCCUAC [snR30 IH (nt 398-531)]
binding [1]: no binding

Molecule: snR30 full length (nt 1-606)
Kd [2]: 300 nM

Molecule: GGGUAGGACGCAUGAUCUUGAGCUCUUUUCCUAUACUUUGUCCUAUGGCCAGCUUUCUCCUUAUUACGAAGAGAUUGCGGGAUGUGGGUGCAGAGUGGGAAAAUCUGAGUUCGGUCAUCUUUGUUGUUCGUCCUACCGCAGUAUAUUCCUAAACACUAUGAAAUGACCCUAGUUGGUCCAUGAUCAUUUGGGUAAAACCAUACUGCAGACAUCU [snR30 IH + 3' HP (nt 398-606)]
binding [1]: binds more weakly

Molecule: GGCGUAUUGCUCGAAUAUAUUAGCAUGGAAUAAUAGAAUAGGACGUUUGGUUCUAUUUUGUUGGUUUCUAGGACCAUCGUAAUGAUUAAUAGGGACGGUCGGGGGCAUCAGUAUUCAAUUGUCAGAGGUGAAAUUCUUGGAUUUAUUGAAGACUAACUACUGCGAAAGCAUUUGCCAAGGACGUUUUCA [18S rRNA ES6 fragment (nt 775-963, RNA A)]
binding [3]: binds

Molecule: GGCCGCAGUAUAUUCCUAAACACUAUGAAAUGACCCUAGUUGGUCCAUGAUCAUUUGGGUAAAACCAUACUGCAGACAUCU [snR30 3' HP (nt 531-606)]
binding [1]: no binding

Molecule: B1
binding result (GST-tagged yeast yUtp23): binds | binding result (GST-tagged yeast yRrp7): binds

binding result (GST-tagged human hUTP23): binds
B2: N-terminally His-tagged hNHP2 (natural protein, human, UniProt Q9NX24 1-153, looked up)
chain: MTKIKADPDGPEAQAEACSGERTYQELLVNQNPIAQPLASRRLTRKLYKCIKKAVKQKQIRRGVKEVQKFVNKGEKGIMVLAGDTLPIEVYCHLPVMCEDRNLPYVYIPSKTDLGAAAGSKRPTCVIMVKPHEEYQEAYDECLEEVQSLPLPL
notes: core box H/ACA protein hNHP2, human; open reading frame amplified from human cDNA; not shown: His tag, N-terminal, kept

binding result [4]: binds
B3: GST-tagged yeast yUtp24 (natural protein, S. cerevisiae, UniProt Q05498 1-189, looked up)
chain: MGKAKKTRKFGLVKRTLNTKKDQRLKKNQENIKTKEDPELTRNIPQVSSALFFQYNQAIKPPYQVLIDTNFINFSIQKKVDIVRGMMDCLLAKCNPLITDCVMAELEKLGPKYRIALKLARDPRIKRLSCSHKGTYADDCLVHRVLQHKCYIVATNDAGLKQRIRKIPGIPLMSVGGHAYVIEKLPDVF
notes: yUtp24/Fcf1, S. cerevisiae; open reading frame amplified from yeast genomic DNA; also called Fcf1; yUtp24(Fcf1)

Molecule: B4
binding result [5]: binds

binding result (GST-tagged human hUTP23): binds
B5: N-terminally His-tagged hUTP24 (natural protein, human, UniProt Q9Y324 1-198, looked up)
chain: MGKQKKTRKYATMKRMLSLRDQRLKEKDRLKPKKKEKKDPSALKEREVPQHPSCLFFQYNTQLGPPYHILVDTNFINFSIKAKLDLVQSMMDCLYAKCIPCITDCVMAEIEKLGQKYRVALRIAKDPRFERLPCTHKGTYADDCLVQRVTQHKCYIVATVDRDLKRRIRKIPGVPIMYISNHRYNIERMPDDYGAPRF
notes: hUTP24 (human homologue of yUtp24/Fcf1); open reading frame amplified from human cDNA; not shown: His tag, N-terminal, kept
